Assay results as given in patent publication US20090297524A1 (DOMANTIS, published 2009).

T1: Recombinant human CD40L (human, UniProt P29965 108-261, limits assumed)
T1 construct: also called CD40 ligand
T1 sequence (looked up): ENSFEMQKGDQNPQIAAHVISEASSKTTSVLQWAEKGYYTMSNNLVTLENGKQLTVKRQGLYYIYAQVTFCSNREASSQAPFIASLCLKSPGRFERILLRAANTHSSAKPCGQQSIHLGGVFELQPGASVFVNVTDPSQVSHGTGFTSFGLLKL

B1: DOM.113 (other)
VH: EVQLLESGGGLVQPGGSLRLSCAASGFTFTEYPMSWVRQAPGKGLEWVSVISPLGFTTYYADSVKGRFTISRDNSKNTLYLQMNSLRAEDTAVYYCAKWTGGSGILNSSFDYWGQGTLVTVSS
notes: VH dAb
B2: DOM.133 (other)
VH: EVQLLESGGGLVQPGGSLRLSCAASGFTFIGYAMAWVRQAPGKGLEWVSSIGPLGATTYYADSVKGRFTISRDNSKNTLYLQMNSLRAEDTAVYYCAKLPAGTSSHSVDFDYWGQGTLVTVSS
notes: VH dAb
B3: DOM.114 (other)
VH: EVQLLESGGGLVQPGGSLRLSCAASGFRVSNYDLTWVRQAPGKGLEWVSTISATNGSTYYADSVKGRFTISRDNSKNTLYLQMNSLRAEDTAVYYCAAVTWWLLRHNDNLGFWGQGTLVTVSS
B4: DOM.124 (other)
VH: EVQLLESGGGLVQPGGSLRLSCAASGFTFKRYDMDWVRQAPGKGLEWVSTIGSSGYPTYYADSVKGRFTISRDNSKNTLYLQMNSLRAEDTAVYYCAERMPGYFPGFARQFDYWGQGTLVTVSS
notes: VH dAb
B5: DOM.120 (other)
VH: EVQLLESGGGLVQPGGSLRLSCAASGFTFRSYTMGWVRQAPGKGLEWVSSINPMGYQTYYADSVKGRFTISRDNSKNTLYLQMNSLRAEDTAVYYCAKHGVGKGTKPHNFDYWGQGTLVTVSS
notes: VH dAb
B6: DOM.134 (other)
VH: EVQLLESGGGLVQPGGSLRLSCAASGFTFADYEMTWVRQAPGKGLEWVSSITSDGVSTYYADSVKGRFTISRDNSKNTLYLQMNSLRAEDTAVYYCAKPSVQFDYWGQGTLVTVSS
notes: VH dAb
B7: DOM.132 (other)
VH: EVQLLESGGGLVQPGGSLRLSCAASGFTFADYDMAWVRQAPGKGLEWVSGIVDDGLMTYYADSVKGRFTISRDNSKNTLYLQMNSLRAEDTAVYYCAKPDVAFDYWGQGTLVTVSN
notes: VH dAb
B8: DOM.184 (other)
VH: EVQLLESGGGLVQPGGSLRLSCAASGFTFSDYEMMWVRQAPGKGLEWVSSITSHGGSTYYADSVKGRFTISRDNSKNTLYLQMNSLRAEDTAVYYCAKPDKDFDYWGQGTLVTVSS
notes: VH dAb
B9: DOM.205 (other)
VH: EVQLLESGGGLVQPGGSLRLSCAASGFTFASYQMAWVRQAPGKGLEWVSGITSGGLSTYYADSVKGRFTISRDNSKNTLYLQMNSLRAEDTAVYYCAKPGRGFDYWGQGTLVTVSS
notes: VH dAb
B10: DOM.186 (other)
VH: EVQLLESGGGLVQPGGSLRLSCAASGLTFGRYEMAWVRQAPGKGLEWVSSIDSDGWVTYYADSVKGRFTISRDNSKNTLYLQMNSLRAEDTAVYYCAQPDSLFDYWGQGTLVTVSS
notes: VH dAb
B11: DOM.208 (other)
VH: EVQLLESGGGLVQPGGSLRLSCAASGFTFTEYEMSWVRQAPGKGLEWVSSIDNVGSSTYYADSVKGRFTISRDNSKNTLYLQMNSLRAEDTAVYYCAKPGKLFDYWGQGTLVTVSS
notes: VH dAb
B12: DOM.178 (other)
VH: EVQLLESGGGLVQPGGSLRLSCAASGFTFEDFDMAWVRQAPGKGLEWVSSINDQGSLTYYADSVKGRFTISRDNSKNTLYLQMNSLRAEDTAVYYCAKPDQFFDYWGQGTLVTVSS
notes: VH dAb
B13: DOM.180 (other)
VH: EVQLLESGGGLVQPGGSLRLSCAASGFTFTDYEMGWVRQAPGKGLEWVSTITSLGESTYYADSVKGRFTISRDNSKNTLYLQMNSLRAEDTAVYYCAKPGRIFDYWGQGTLVTVSS
notes: VH dAb
B14: DOM.190 (other)
VH: EVQLLESGGGLVQPGGSLRLSCAASGFTFSMYDMHWVRQAPGKGLEWVSTILSDGTDTYYADSVKGRFTISRDNSKNTLYLQMNSLRAEDTAVYYCAKYGAMFDYWGQGTLVTVSS
notes: VH dAb
B15: DOM.196 (other)
VH: EVQLLESGGGLVQPGGSLRLSCAASGFTFSGYEMAWVRQAPGKGLEWVSSITDMGDSTYYADSVKGRFTISRDNSKNTLYLQMNSLRAEDTAVYYCAKPGTAFDYWGPGTLVTVSS
notes: VH dAb
B16: DOM.206 (other)
VH: EVQLLESGGGLVQPGGSLRLSCAASGFTFASYEMTWVRQAPGKGLEWVSGISSDGLSTYYADSVKGRFTISRDNSKNTLYLQMNSLRAEDTAVYYCAKPGVLFDYWGQGTLVTVSS
notes: VH dAb
B17: DOM.137 (other)
VH: EVQLLESGGGLVQPGGSLRLSCAASGFTFASYPMGWVRQAPGKGLEWVSSIGPIGFTTYYADSVKGRFTISRDNSKNTLYLQMNSLRAEDTAVYYCAEMKSPYKPQFDYWGQGTLVTVSS
notes: VH dAb
B18: DOM8.111 (other)
VH: EVQLLESGGGLVQPGGSLRLSCAASGFTFERYPMTWVRQAPGKGLEWVSTIHGSGSATYYADSVKGRFTISRDNSKNTLYLQMNSLRAEDTAVYYCAKGPYTSRHNSLGHFDYWGQGTLVTVSS
notes: VH dAb
B19: DOM.138 (other)
VH: EVQLLESGGGLVQPGGSLRLSCAASGFTFLAYWMVWVRQAPGKGLEWVSSISPSGTHTYYADSVKGRFTISRDNSKNTLYLQMNSLRVEDTAVYYCAKYTEPGLGSFDYWGQGTLVTVSS
notes: VH dAb
B20: DOM.126 (other)
VH: EVQLLESGGGLVQPGGSLRLSCAASGFTFANYSMSWVRQAPGKGLEWVSSIDRLGTHTYYADSVKGRFTISRDNSKNTLYLQMNSLRAEDTAVYYCAKVLADLIAGHAEFDYWGQGTLVTVSS
notes: VH dAb
B21: DOM.125 (other)
VH: EVQLLESGGGLVQPGGSLRLSCAASGFTFWRYAMGWVRQAPGKGLEWVSTINDEGRETYYADSVKGRFTISRDNSKNTLYLQMNSLRAEDTAVYYCAKKRVSSSVNAPYEFDYWGQGTLVTVSS
notes: VH dAb
B22: DOM.100 (other)
VL: DIQMTQSPSSLSASVGDRVTITCRASQNIKHSLRWYQQKPGKAPRLLIYHRSQLQSGVPSRFSGSGSGTDFTLTISSLQPEDFATYYCQQVRHRPYTFGQGTKVEIKR
notes: Vk dAb
B23: DOM.102 (other)
VL: DIQMTQSPSSLSASVGDRVTITCRASQHIGHHLRWYQQKPGKAPKLLIYHRSHLQSGVPSRFSGSGSGTDFTLTISSLQPEDSATYYCQQWDRPPYTFGQGTKVEIKR
notes: Vk dAb
B24: DOM.115 (other)
VH: EVQLLESGGGLVQPGGSLRLSCAASGFSISYKNMAWVRQAPGKGLEWVSAIKAANGSTYYADSVKGRFTISRDNSKNTLYLQMNSLRAEDTAVYYCATGSQKKRTYTFDFWGQGTLVTVSS
B25: DOM.136 (other)
VH: EVQLLESGGGLVQPGGSLRLSCAASGFTFDGYRMGWVRQAPGKGLEWVSSIAPDGNYTYYADSVKGRFTISRDNSKNTLYLQMNSLRAEDTAVYYCAKFWGMQFDYWGQGTLVTVSS
notes: VH dAb
B26: DOM.112 (other)
VH: EVQLLESGGGLVQPGGSLRLSCAASGFTFMDYPMGWVRQAPGKGLEWVSSIGPVGMSTYYADSVKGRFTISRDNSKNTLYLQMNSLRAEDTAVYYCAKYGGTSGRHNTKFDYWGQGTLVTVSS
notes: VH dAb
B27: DOM.123 (other)
VH: EVQLLESGGGLVQPGGSLRLSCAASGFTFIEYPMRWVRQAPGKGLEWVSLISPSGVFTYYADSVKGRFTISRDNSKNTLYLQMNSLRAEDTAVYYCAKGDESSTFDYWGQGTLVTVSS
notes: VH dAb
B28: DOM.127 (other)
VH: EVQLLESGGGLVQPGGSLRLSCAASGFTFPSYDMAWVRQAPGKGLEWVSGISRSGSMTYYADSVKGRFTISRDNSKNTLYLQMNSLRAEDTAVYYCAKGVDAHVYYMEPFFDYWGQGTLVTVSS
notes: VH dAb
B29: DOM.99 (other)
VH: EVQLLESGGGLVQPGGSLRLSCAASGFTFEDYAMSWVRQAPGKGLEWVSTITPGGFWTYYADSVKGRFTISRDNSKNTLYLQMNSLRAEDTAVYYCAKTSSGELQLVEDFDYWGQGTLVTVSS
notes: VH dAb
B30: DOM.135 (other)
VH: EVQLLESGGGLVQPGGSLRLSCAASGFTFRRYVMGWVRQAPGKGLEWVSWIEADGRTTYYADSVKGRFTISRDNSKNTLYLQMNSLRAEDTAVYYCAKGLTDQHVIEFDYWGQGTLVTVSS
notes: VH dAb
B31: DOM.121 (other)
VH: EVQLLESGGGLVQPGGSLRLSCAASGFTFELYRMSWVRQAPGKGLEWVSEISGSGFPTYYADSVKGRFTISRDNSKNTLYLQMNSLRAEDTAVYYCAKSLHDKTQHHQEFDYWGQGTLVTVSS
notes: VH dAb

Target: T1, Recombinant human CD40L
Assay: CD40L/CD40-Fc receptor binding assay;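 also: plate assay with coated human CD40-Fc, bound ligand detected via HRP anti-biotin antibody and TMB, OD at 450 nm, lower signal indicates stronger inhibition by dAb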
Method: A 96 well Nunc Maxisorp assay plate was coated overnight at 4° C. with 100 μl per well of recombinant human CD40/Fc (R&D Systems) at 0.5 μg/ml in carbonate buffer. The plate was washed 3 times with 300 μl of 0.05% Tween/PBS and 3 times with 300 μl of PBS using a Tecan plate washer. The wells were blocked using 200 μl of PBS containing 2% (w/v) BSA and incubated for a minimum of 1 h at room temperature. The wells were washed as above, then 50 μl of purified dAb protein (or unpurified supernatant containing dAb from a micro-culture expression) was added to each well.
The plate was washed as described above, then 100 μl HRP conjugated anti-biotin antibody (1:5000 dilution in diluent) added to each well and the plate incubated for 1 hr at room temperature. The plate was washed again as described above using a Tecan plate washer and the assay developed using 100 μl of SureBlue 1-Component TMB MicroWell Peroxidase solution (the plate was left at room temperature for up to 20 min). The reaction was stopped by the addition of 100 μl M hydrochloric acid. The OD₄₅₀ₙₘ of the plate was assayed within 30 minutes of acid addition. The OD₄₅₀ₙₘ is proportional to the amount of bound streptavidin-HRP conjugate, therefore the greater the degree of dAb inhibition the lower the OD₄₅₀ₙₘ of the resulting signal.

Binding result, binds:
B1, B2, B3, B4, B5, B6, B7, B8, B9, B10, B11, B12, B13, B14, B15, B16, B17, B18, B19, B20, B21, B22, B23, B24, B25, B26, B27, B28, B29, B30, B31
